The text below walks through data of patent publication US11673916B2, “Neuroprotective peptides and methods of their use” (University of Pittsburgh—Of the Commonwealth System of …, priority 2020, dated 2023).

Experiment [1] has as its system MCAo mouse model of ischemic stroke. As to the kind of experiment: Transient middle cerebral artery occlusion (MCAo), infarct ratio by TTC staining. Type of experiment: in vivo. To be noted: 50 minutes MCAo, IP peptide at one and six hours after reperfusion, 24 h after reperfusion, mean±SEM (FIG. 6D). The method, then: Mice were anesthetized with isoflurane and the common carotid artery was exposed. A single-use silicon-coated suture (MCAo suture #602256PK10; Doccol Corporation, Sharron, Mass.) was advanced 8-9 mm into the internal carotid artery, occluding the MCA. The suture was secured with 6-0 silk ligatures for 50 minutes, then removed. Twenty-four hours following cerebral reperfusion, mice were sacrificed and four 2-mm coronal brain sections were obtained from each animal. Sections were stained with 0.05% 2,3,5-triphenyltetrazolium chloride (TTC) in PBS for 30 minutes at room temperature. Brain sections were digitally scanned following staining and a blinded experimenter measured infarct ratios (infarct area/total section area) using NIH ImageJ software. Visual representation of this protocol is in FIG. 6B.
The neuroprotective efficacy of TAT-DP-2 in vivo was next tested. […]
Twenty-four hours following cerebral reperfusion after MCAo, total infarct ratios were analyzed (FIG. 6B) in tetrazolium chloride-stained brain sections (FIGS. 6B and 6C). […] A different, blinded observer then analyzed each animal and assigned an objective murine neurological score (MNS; Table 3) to each mouse over a 42-day period. As the MNS is based solely on characteristic motor deficits developed following left MCAo, all animals initially scored zero on the scale.

The target in experiment [2] is T1, Kv2.1-mediated potassium currents (Rattus norvegicus, UniProt P15387).
T1 construct: endogenous in cells; host or cells: primary rat cortical neurons
T1 sequence (P15387 1-857): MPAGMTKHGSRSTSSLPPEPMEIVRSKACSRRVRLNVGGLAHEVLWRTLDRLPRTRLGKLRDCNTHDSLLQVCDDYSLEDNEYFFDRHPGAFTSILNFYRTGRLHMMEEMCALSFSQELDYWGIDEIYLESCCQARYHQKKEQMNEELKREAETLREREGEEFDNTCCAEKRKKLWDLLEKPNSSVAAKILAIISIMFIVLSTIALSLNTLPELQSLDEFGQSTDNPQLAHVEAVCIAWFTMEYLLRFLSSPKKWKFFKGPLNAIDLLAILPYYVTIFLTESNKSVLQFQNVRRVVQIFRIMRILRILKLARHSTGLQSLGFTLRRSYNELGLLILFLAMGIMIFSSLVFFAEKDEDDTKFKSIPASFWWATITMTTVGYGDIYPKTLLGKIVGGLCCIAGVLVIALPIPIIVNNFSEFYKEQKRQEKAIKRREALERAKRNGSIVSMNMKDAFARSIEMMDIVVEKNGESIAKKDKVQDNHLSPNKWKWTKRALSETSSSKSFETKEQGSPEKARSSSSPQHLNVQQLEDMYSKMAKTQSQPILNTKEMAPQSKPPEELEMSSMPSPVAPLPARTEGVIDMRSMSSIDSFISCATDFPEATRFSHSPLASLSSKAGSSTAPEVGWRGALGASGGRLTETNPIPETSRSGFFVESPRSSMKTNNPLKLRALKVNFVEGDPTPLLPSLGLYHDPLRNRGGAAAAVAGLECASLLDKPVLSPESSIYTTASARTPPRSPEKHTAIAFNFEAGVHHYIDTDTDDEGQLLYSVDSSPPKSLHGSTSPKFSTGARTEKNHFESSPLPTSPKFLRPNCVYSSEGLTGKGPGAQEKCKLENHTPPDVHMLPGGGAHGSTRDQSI
Nature of the experiment: Whole-cell voltage clamp of Kv2.1-mediated potassium current densities with or without TBOA. Format: cell-based. To be noted: voltage step from -80 mV to 30 mV, mean±SEM (FIG. 4A).

Where [3] appears, read: 10 μM peptide + TBOA (60 μM), 3-5 hours after treatment.

For the sequence “YGRKKRRQRRRDFSSIST [TAT-Sc-2, TAT-linked scramble control peptide]”, the “mean total infarct ratio” value in experiment [1] was 0.121±0.009. In addition, the “mean Kv2.1-mediated potassium current density” value in experiment [2] (setting [3]) was determined as 130.80±9.43 pA/pF; in experiment [2] (10 μM peptide without TBOA) it was 71.42±10.27 pA/pF.
In the case of “YGRKKRRQRRRSIDSFTS [TAT-DP-2, TAT-linked declustering peptide 2]”, the “mean total infarct ratio” value in experiment [1] was 0.071±0.020. Also, the “mean Kv2.1-mediated potassium current density” value in experiment [2] (setting [3]) turned out to be 65.68±12.07 pA/pF; in experiment [2] (10 μM peptide without TBOA), 66.86±4.76 pA/pF.
